Reference: US20200308301A1 (Novartis, published 2020)

B1: IDT3 (Fab, V domains shown)
VH: QVQLVESGGGLVKPGGSLRLSCAASGFTFQSAAVHWVRQAPGKGLEWVGRIKSKADGGTTDYAAPVKGRFTISRDDSKNTLYLQMNSLKTEDTAVYYCARDSPSISSYSIPYFSGMDVWGQGTLVTVSS
VL: DIQMTQSPSSLSASVGDRVTITCRASQGIRAWLNWYQQKPGKAPKLLIYAASSLQSGVPSRFSGSGSGTDFTLTISSLQPEDFATYYCHQYITHPPTFGQGTKVEIKR
notes: Fab; also called anti-NOV1401 Fab IDT3
B2: NOV1401 (antibody, human IgG1, lambda, V domains shown)
VH: QVQLLESGGGLVQPGGSLRLSCAASGFTFSTAAMSWVRQAPGKGLEWVSGISGSGSSTYYADSVKGRFTISRDNSKNTLYLQMNSLRAEDTAVYYCARELSYLYSGYYFDYWGQGTLVTVSS
VL: QSVLTQPPSASGTPGQRVTISCSGSSSNIGSNDVSWYQQLPGTAPKLLIYKNYNRPSGVPDRFSGSKSGTSASLAISGLQSEDEADYYCSAWDQRQFDVVFGGGTKLTVLG
notes: It was amine-coupled to the chip in SPR, and used soluble and biotinylated in SET; also called anti-FXI/FXIa antibody NOV1401; anti-Factor XI/FXIa antibody NOV1401

Columns and labels:
NOV1401 [1] = molecular target: B2; assay: cell-based or functional assay
[2] = molecular target: T1, Human plasma-derived FXIa (human, UniProt P03951 19-625); assay: SPR, FXIa immobilized on GLC chip
T1 construct: also called Factor XIa
Procedure: SPR experiments were performed in principle as described in Example 2 with the following changes. Human plasma-derived FXIa was used as ligand and immobilized on an activated ProteOn GLC sensor chip (Bio-Rad Laboratories, Inc.) using standard amine coupling procedures as described and by injecting FXIa at a concentration of 10 μg/ml in 20 mM sodium acetate, pH 5.0 and at a flow rate of 30 μl/min for 10 min.
For binding competition studies NOV1401 and three mixture of NOV1401 with anti-NOV1401 Fab at molar ratios of 1:1, 1:2, and 1:10 were prepared in PBS/T buffer and injected in simultaneously onto surfaces with immobilized FXI at a flow rate of 100 μL/min. Sensorgrams were recorded for association and dissociation times of 220 s and 1800 s, respectively. Blank surfaces were used for background corrections.

NOV1401 [3] = molecular target: B2; assay: SPR (ProteOn XPR36), NOV1401 immobilized, Fab as analyte, 1:1 Langmuir fit, average
Procedure: SPR binding experiments were performed on a ProteOn XPR36 instrument (Bio-Rad Laboratories, Inc.) in PBS/T buffer (50 mM phosphate, 150 mM NaCl, pH 7.4, 0.005% v/v Tween-20) at 25° C. NOV1401 (‘Ligand’) was immobilized onto an activated ProteOn GLC sensor chip (Bio-Rad Laboratories, Inc.) using standard amine coupling procedures as described by the manufacturer. Briefly, NOV1401 was injected at a concentration of 10 μg/ml in 20 mM sodium acetate, pH 5.0 and at a flow rate of 30 μl/min for 10 min. Unreacted groups were blocked by injecting 1 M ethanolamine.
For kinetic studies anti-NOV1401 Fabs (‘Analytes’) were diluted in PBS/T buffer to generate a dilution series with concentrations ranging from 0.125-4 nM. Fabs were injected onto surfaces with immobilized NOV1401 at a flow rate of 100 μL/min and sensorgrams were recorded for association and dissociation times of 220 s and 1800 s, respectively. Blank surfaces were used for background corrections. There was no need to regenerate surfaces since the ProteOn protein interaction array system allows to run up to six binding experiments on an identical surface in parallel.
Data processing and analysis including kon, koff, and KD determination were performed with the ProteOn Manager™ software version 3.1.0.6.

NOV1401 [4] = molecular target: B2; assay: cell-based or functional assay; remark: listed apart in the source
NOV1401 [5] = molecular target: B2; assay: Solution equilibrium titration (SET), 1:1 fit, average
Procedure: (§1) 14 serial (2×) dilutions of NOV1401 were prepared in sample buffer (PBS pH 7.4 containing 0.5% (w/v) BSA and 0.02% Tween 20) and a constant concentration of the anti-NOV1401 Fab or IgG was added to each NOV1401 concentration ranging from 40 pM to 240 pM. Optimal constant anti-NOV1401 Fab or IgG concentrations and optimal starting concentrations for NOV1401 dilution series were determined in pilot experiments.
(§2) After incubation and three times washing with PBST (PBS containing 0.05% Tween 20) 30 μl/well of the NOV1401/anti-NOV1401 Fab or IgG preparation was transferred from the polypropylene MTP to the NOV1401-coated SA plate and incubated for 30 min at RT on a MTP shaker. After three additional wash steps, 30 μl of 0.5 μg/ml detection antibody (Goat anti-human Kappa LC-HRP, BETHYL # A80-115P) diluted in sample buffer was added to each well and incubated for 1 h at RT with shaking. After washing the plate again three times, 30 μl of detection reagent (LumiGLO Peroxidase Chemiluminescent Substrate, KPL #54-61-01) was added to each well. Electrochemiluminescence (ECL) signals were generated and detected immediately with a luminescence imager (SpectraMax M5, Molecular Devices, LLC).
Average ECL-signals were calculated from duplicate measurements within each assay. Data were baseline adjusted by subtracting the lowest value from all data points and plotted against the corresponding antigen concentration. KD values were determined by fitting the plot with the following non-linear curve fitting model for 1:1 binding according to Haenel et al 2005: […]

IDT10 = molecular target: T2, IDT10; assay: SET: soluble NOV1401 titrated against constant IDT10 Fab; competitor is plate-bound biotinylated NOV1401; free Fab read as RLU
T2 construct: Fab; also called anti-NOV1401 Fab IDT10
Procedure: as §1
(§3) 30 µl/well of each dilution mix was distributed in duplicates to a 384-well polypropylene Eppendorf microplate (MTP). Sample buffer served as negative control and a sample containing no antigen as positive control (Bmax). The plate was sealed and incubated overnight at RT on a plate shaker.
as §2, with “After washing the plate again three times, 30 μl of detection reagent (LumiGLO Peroxidase Chemiluminescent Substrate, KPL #54-61-01) was added to each well.” left out

[6] = molecular target: Human FXI in normal human plasma (human, UniProt P03951 19-625); assay: cell-based or functional assay
IDT3 = molecular target: B1; assay: SET: soluble NOV1401 titrated against constant IDT3 Fab; competitor is plate-bound biotinylated NOV1401; free Fab read as RLU
Procedure: as §1, §3
as §2, with “After washing the plate again three times, 30 μl of detection reagent (LumiGLO Peroxidase Chemiluminescent Substrate, KPL #54-61-01) was added to each well.” left out

IDT12 = molecular target: T3, IDT12; assay: SET: soluble antigen (NOV1401 by the legend and Example 2, axis labelled MAA868) titrated against constant IDT12 IgG; competitor is plate-bound biotinylated NOV1401; free IgG read as RLU
T3 construct: also called anti-NOV1401 IgG IDT12; full length IgG format for IDT2
Procedure: as §1, §3
as §2, with “After washing the plate again three times, 30 μl of detection reagent (LumiGLO Peroxidase Chemiluminescent Substrate, KPL #54-61-01) was added to each well.” left out

IDT11 = molecular target: T4, IDT11; assay: SET: soluble antigen (NOV1401 by the legend and Example 2, axis labelled MAA868) titrated against constant IDT11 IgG; competitor is plate-bound biotinylated NOV1401; free IgG read as RLU
T4 construct: also called anti-NOV1401 IgG IDT11; full length IgG format for IDT1
Procedure: as §1, §3
as §2, with “After washing the plate again three times, 30 μl of detection reagent (LumiGLO Peroxidase Chemiluminescent Substrate, KPL #54-61-01) was added to each well.” left out

IDT9 = molecular target: T5, IDT9; assay: SET: soluble NOV1401 titrated against constant IDT9 Fab; competitor is plate-bound biotinylated NOV1401; free Fab read as RLU
T5 construct: Fab; also called anti-NOV1401 Fab IDT9
Procedure: as §1, §3
as §2, with “After washing the plate again three times, 30 μl of detection reagent (LumiGLO Peroxidase Chemiluminescent Substrate, KPL #54-61-01) was added to each well.” left out

IDT4 = molecular target: T6, IDT4; assay: SET: soluble NOV1401 titrated against constant IDT4 Fab; competitor is plate-bound biotinylated NOV1401; free Fab read as RLU
T6 construct: Fab; also called anti-NOV1401 Fab IDT4
Procedure: as §1, §3
as §2, with “After washing the plate again three times, 30 μl of detection reagent (LumiGLO Peroxidase Chemiluminescent Substrate, KPL #54-61-01) was added to each well.” left out

IDT8 = molecular target: T7, IDT8; assay: SET: soluble NOV1401 titrated against constant IDT8 Fab; competitor is plate-bound biotinylated NOV1401; free Fab read as RLU
T7 construct: Fab; also called anti-NOV1401 Fab IDT8
Procedure: as §1, §3
as §2, with “After washing the plate again three times, 30 μl of detection reagent (LumiGLO Peroxidase Chemiluminescent Substrate, KPL #54-61-01) was added to each well.” left out

IDT7 = molecular target: T8, IDT7; assay: SET: soluble NOV1401 titrated against constant IDT7 Fab; competitor is plate-bound biotinylated NOV1401; free Fab read as RLU
T8 construct: Fab; also called anti-NOV1401 Fab IDT7
Procedure: as §1, §3
as §2, with “After washing the plate again three times, 30 μl of detection reagent (LumiGLO Peroxidase Chemiluminescent Substrate, KPL #54-61-01) was added to each well.” left out

IDT5 = molecular target: T9, IDT5; assay: SET: soluble NOV1401 titrated against constant IDT5 Fab; competitor is plate-bound biotinylated NOV1401; free Fab read as RLU
T9 construct: Fab; also called anti-NOV1401 Fab IDT5
Procedure: as §1, §3
as §2, with “After washing the plate again three times, 30 μl of detection reagent (LumiGLO Peroxidase Chemiluminescent Substrate, KPL #54-61-01) was added to each well.” left out

Binder	TGA percentage reversal, NOV1401/anti NOV1401 ratio 1/1 (n/n) (NOV1401 [1])	TGA percentage reversal, NOV1401/anti NOV1401 ratio 1/3 (n/n) (NOV1401 [1])	TGA percentage reversal, NOV1401/anti NOV1401 ratio 1/10 (n/n) (NOV1401 [1])	binding result [2]	Kd (NOV1401 [3])	aPTT percentage reversal, NOV1401/anti NOV1401 ratio 1/1 (n/n) (NOV1401 [4])	aPTT percentage reversal, NOV1401/anti NOV1401 ratio 1/3 (n/n) (NOV1401 [4])	aPTT percentage reversal, NOV1401/anti NOV1401 ratio 1/10 (n/n) (NOV1401 [4])	Kd (NOV1401 [5])	binding result (IDT10)	TGA in human plasma: IC50 of NOV1401 for reduction of peak thrombin [6]	binding result (IDT3)	IC50 (read off the curve) (IDT12)	IC50 (read off the curve) (IDT11)	binding result (IDT9)	binding result (IDT4)	binding result (IDT8)	binding result (IDT7)	binding result (IDT5)
B1	31%	47%	67%	no binding	0.24 nM	9%	35%	58%	0.1 nM	–	–	–	–	–	–	–	–	–	–
B2	–	–	–	–	–	–	–	–	–	binds	0.05 µM	binds	~10 pM	~8 pM	binds	binds	binds	binds	binds
IDT1 (Fab, V domains shown, Fab (heavy chain is VH-CH1); also called anti-NOV1401 Fab IDT1) VH: QVQLLESGGGLVQPGGSLRLSCAASGFTFSDYAMSWVRQAPGKGLEWVSVIDYSSSNTYYADSVKGRFTISRDNSKNTLYLQMNSLRAEDTAVYYCAREGYSYRSIRFDYWGQGTLVTVSS VL: DIQMTQSPSSLSASVGDRVTITCRASQSISSNLNWYQQKPGKAPKLLIYAASNLQSGVPSRFSGSGSGTDFTLTISSLQPEDFATYYCLQFDHTPFTFGQGTKVEIKR	49%	55%	55%	no binding	0.44 nM	12%	45%	64%	0.11 nM	–	–	–	–	–	–	–	–	–	–
